Laboratory results taken from patent US20120283184A1 (published 2012).

Biological target: T1, human vascular endothelial growth factor receptor-2 Fc chimera (KDR-Fc) (human, UniProt P35968 20-764)
T1 construct: range 1-764; also called human VEGFR-2; not shown: human IgG1 Fc
Experiment: radioactive equilibrium binding, 1 nM KDR-Fc, % of input
Experimental: To prepare ³⁵S-labeled binding proteins for analysis, mRNA was prepared as described above for RNA-protein fusion production but the linker ligation step was omitted. The mRNA was expressed using rabbit reticulocyte lysate translation kit (Ambion) in the presence of ³⁵S-labeled Met at 30° C. for 1 hour. Expressed protein was purified on M2-agarose Flag beads (Sigma) as described above. This procedure produced the encoded protein without the nucleic acid tail. In a direct binding assay, VEGF-R2-Fc fusions in concentrations ranging from 0 to 200 nM were added to a constant concentration of the purified protein (0.2 or 0.5 nM) and incubated at 30° C. for 1 hour in buffer B. The receptor-binder complexes were captured using Protein A magnetic beads for another 10 minutes at room temperature using a Kingfisher™ The beads were washed with six reaction volumes of buffer B. The protein was eluted from the beads with 100 μL of 0.1 M KOH. 50 μL of the reaction mixture and elution were dried onto a LumaPlate-96 (Packard) and the amount of ³⁵S on the plate was measured using a TopCount NXT instrument (Packard). The amount of fibronectin-based scaffold protein bound to the target was estimated as a percent of radioactivity eluted from Protein A magnetic beads compare to radioactivity in the reaction mixture. Nonspecific binding of fibronectin-based scaffold proteins to the beads was determined by measuring binding in the absence of KDR-Fc and represented less than 1-2% of the input. Specific binding was obtained through subtraction of nonspecific binding from total binding. Data was analyzed using the GraphPad Prizm software (GraphPad Software, Inc, San Diego, Calif.), fitted using a one site, non-linear binding equation.

T1 sequence (P35968 20-764 limits assumed, change not shown, form in doubt): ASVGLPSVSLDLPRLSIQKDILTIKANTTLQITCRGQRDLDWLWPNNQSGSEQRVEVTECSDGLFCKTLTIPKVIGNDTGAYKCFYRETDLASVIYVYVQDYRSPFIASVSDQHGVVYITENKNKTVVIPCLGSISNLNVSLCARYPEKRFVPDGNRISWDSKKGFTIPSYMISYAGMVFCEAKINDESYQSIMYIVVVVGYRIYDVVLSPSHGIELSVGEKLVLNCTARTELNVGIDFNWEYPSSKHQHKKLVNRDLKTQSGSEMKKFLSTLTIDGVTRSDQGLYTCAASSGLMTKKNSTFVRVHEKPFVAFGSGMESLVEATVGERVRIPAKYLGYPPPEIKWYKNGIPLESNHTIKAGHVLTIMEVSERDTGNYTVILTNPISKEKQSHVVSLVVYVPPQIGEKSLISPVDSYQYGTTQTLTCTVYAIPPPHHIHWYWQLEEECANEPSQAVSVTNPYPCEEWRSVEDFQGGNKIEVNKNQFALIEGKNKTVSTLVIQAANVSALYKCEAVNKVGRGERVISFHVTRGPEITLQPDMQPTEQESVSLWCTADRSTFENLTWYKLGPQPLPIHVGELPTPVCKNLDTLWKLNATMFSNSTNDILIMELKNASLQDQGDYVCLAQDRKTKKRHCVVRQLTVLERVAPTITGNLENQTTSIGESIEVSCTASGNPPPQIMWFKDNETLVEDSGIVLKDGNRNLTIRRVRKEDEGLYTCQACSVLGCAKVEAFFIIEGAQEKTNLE

Binder	Binding to 1 nM KDR, % [%]
2′Del C8 PR4 (designed binder) EVVAATPTSLLISWRHPHFPTRYYRITYGETGGNSPVQEFTVPLQPPTATISGLKPGVDYTITVYAVTTAHNGHELLTPISINYRT	15
3A2 PR3 (designed binder) EVVAATPTSLLISWRHPHFPTRYYRITYGETGGNSPVQEFTVPLQPPTATISGLKPGVDYTITVYAVTWSQNNRELFTPISINYRT	23
2′Del E3 PR4 (designed binder) EVVAATPTSLLISWRHPHFPTRYYRITYGETGGNSPVQEFTVPLQPPTATISGLKPGVDYTITVYAVTLGPYEHELLTPISINYRT	33
2′Del E6 PR4 (designed binder) EVVAATPTSLLISWRHPHFPTRYYRITYGETGGNSPVQEFTVPLQPPTATISGLKPGVDYTITVYAVTMGKNGHELLTPISINYRT	43
2′Del D5 PR4 (designed binder) EVVAATPTSLLISWRHPHFPTRYYRITYGETGGNSPVQEFTVPLQPPTATISGLKPGVDYTITVYAVTVAWNDHMLMTPISINYRT	18
2′Del D1 PR4 (designed binder) EVVAATPTSLLISWRHPHFPTRYYRITYGETGGNSPVQEFTVPLQPPTATISGLKPGVDYTITVYAVTLEQNDRVLLTPISINYRT	28
2′DelG5 PR4 (designed binder) EVVAATPTSLLISWRHPHFPTRYYRITYGETGGNSPVQEFTVPLQPPTATISGLKPGVDYTITVYAVTVGQNNHELLTPISINYRT	19
2′Del G9 PR4 (designed binder) EVVAATPTSLLISWRHPHFPTRYYRITYGETGGNSPVQEFTVPLQPPTATISGLKPGVDYTITVYAVTVEQNGRELIIPISINYRT	33
2′Del H5 PR4 (designed binder) EVVAATPTSLLISWRHPHFPTRYYRITYGETGGNSPVQEFTVPLQPPTATISGLKPGVDYTITVYAVTLGKDVRELLTPISINYRT	34
2′Del E5 PR4 (designed binder) EVVAATPTSLLISWRHPHFPTRYYRITYGETGGNSPVQEFTVPLQPPTATISGLKPGVDYTITVYAVTEGLNDHELIIPISINYRT	19
3C3 PR3 (designed binder) EVVAATPTSLLISWRHPHFPTRYYRITYGETGGNSPVQEFTVPLQPPTATISGLKPGVDYTITVYAVTMEQNGHELFTPISINYRT	17
2′Del F8 PR4 (designed binder) EVVAATPTSLLISWRHPHFPTRYYRITYGETGGNSPVQEFTVPLQPPTATISGLKPGVDYTITVYAVTAGPGAHELLTPISINYRT	42
2′DelH4 PR4 (designed binder) EVVAATPTSLLISWRHPHFPTRYYRITYGETGGNSPVQEFTVPLQPPTATISGLKPGVDYTITVYAVTVGPNERMLMTPISINYRT	30
2′Del D3 PR4 (designed binder) EVVAATPTSLLISWRHPHFPTRYYRITYGETGGNSPVQEFTVPLQPPTATISGLKPGVDYTITVYAVTSGLNDRVLFIPISINYRT	38
2′Del D10 PR4 (designed binder) EVVAATPTSLLISWRHPHFPTRYYRITYGETGGNSPVQEFTVPLQPPTATISGLKPGVDYTITVYAVTLADNARELLTPISINYRT	34
2′Del F7 PR4 (designed binder) EVVAATPTSLLISWRHPHFPTRYYRITYGETGGNSPVQEFTVPLQPPTATISGLKPGVDYTITVYAVTLGLRDRELFVPISINYRT	38
2′DelE4 PR4 (designed binder) EVVAATPTSLLISWRHPHFPTRYYRITYGETGGNSPVQEFTVPLQPPTATISGLKPGVDYTITVYAVTVHWNGHELMTPISINYRT	34

Binder	Binding to 1 nM KDR, % [%]
2′Del C11 PR4 (designed binder) EVVAATPTSLLISWRHPHFPTRYYRITYGETGGNSPVQEFTVPLQPPTATISGLKPGVDYTITVYAVTAGLNEHELLIPISINYRT	34
3A3 PR3 (designed binder) EVVAATPTSLLISWRHPHFPTRYYRITYGETGGNSPVQEFTVPLQPPTATISGLKPGVDYTITVYAVTLAYNGREIITPISINYRT	23
2′DelH9 PR4 (designed binder) EVVAATPTSLLISWRHPHFPTRYYRITYGETGGNSPVQEFTVPLQPPTATISGLKPGVDYTITVYAVTVGWSGHELFVPISINYRT	20
2′Del G11 PR4 (designed binder) EVVAATPTSLLISWRHPHFPTRYYRITYGETGGNSPVQEFTVPLQPPTATISGLKPGVDYTITVYAVTGGQMNRVLMTPISINYRT	22
2′DelC7 PR4 (designed binder) EVVAATPTSLLISWRHPHFPTRYYRITYGETGGNSPVQEFTVPLQPPTATISGLKPGVDYTITVYAVTWDQNGHVLLTPISINYRT	19
2′Del F6 PR4 (designed binder) EVVAATPTSLLISWRHPHFPTRYYRITYGETGGNSPVQEFTVPLQPPTATISGLKPGVDYTITVYAVTLGWNDHELYIPISINYRT	22
2′Del F11 PR4 (designed binder) EVVAATPTSLLISWRHPHFPTRYYRITYGETGGNSPVQEFTVPLQPPTATISGLKPGVDYTITVYAVTMGQNDKELITPISINYRT	27
2′Del F5 PR4 (designed binder) EVVAATPTSLLISWRHPHFPTRYYRITYGETGGNSPVQEFTVPLQPPTATISGLKPGVDYTITVYAVTLVHNDRELLTPISINYRT	22
3B4 PR3 (designed binder) EVVAATPTSLLISWRHPHFPTRYYRITYGETGGNSPVQEFTVPLQPPTATISGLKPGVDYTITVYAVTVGQNEHELLTPISINYRT	17
2′DelA5 PR4 (designed binder) EVVAATPTSLLISWRHPHFPTRYYRITYGETGGNSPVQEFTVPLQPPTATISGLKPGVDYTITVYAVTWNQNGQELFTPISINYRT	20
2′DelC3 PR4 (designed binder) EVVAATPTSLLISWRHPHFPTRYYRITYGETGGNSPVQEFTVPLQPPTATISGLKPGVDYTITVYAVTWAQNGRELLTPISINYRT	29
3B5 PR3 (designed binder) EVVAATPTSLLISWRHPHFPTRYYRITYGETGGNSPVQEFTVPLQPPTATISGLKPGVDYTITVYAVTFGQNGHALLTPISINYRT	20
2′Del H12 PR4 (designed binder) EVVAATPTSLLISWRHPHFPTRYYRITYGETGGNSPVQEFTVPLQPPTATISGLKPGVDYTITVYAVTAGGNGHELLTPISINYRT	24
2′Del H6 PR4 (designed binder) EVVAATPTSLLISWRHPHFPTRYYRITYGETGGNSPVQEFTVPLQPPTATISGLKPGVDYTITVYAVTTGHHDHELIIPISINYRT	28
2′DelB7 PR4 (designed binder) EVVAATPTSLLISWRHPHFPTRYYRITYGETGGNSPVQEFTVPLQPPTATISGLKPGVDYTITVYAVTVGYNNRELLTPISINYRT	32
3C7 PR3 (designed binder) EVVAATPTSLLISWRHPHFPTRYYRITYGETGGNSPVQEFTVPLQPPTATISGLKPGVDYTITVYAVTRGLNDGELLTPISINYRT	20
2′Del F1 PR4 (designed binder) EVVAATPTSLLISWRHPHFPTRYYRITYGETGGNSPVQEFTVPLQPPTATISGLKPGVDYTITVYAVTRDQYEHELLTPISINYRT	20
